Measurements taken from US20240010735A1 (EISAI R AND D MANAGEMENT, published 2024).

T1: human EphB2 extracellular region-SEAP-His protein (human, UniProt P29323 19-543)
T1 construct: extracellular domain; also called Eph receptor extracellular region-SEAP-His protein; not shown: secretory alkaline phosphatase (SEAP); histidine tag
T1 sequence (looked up): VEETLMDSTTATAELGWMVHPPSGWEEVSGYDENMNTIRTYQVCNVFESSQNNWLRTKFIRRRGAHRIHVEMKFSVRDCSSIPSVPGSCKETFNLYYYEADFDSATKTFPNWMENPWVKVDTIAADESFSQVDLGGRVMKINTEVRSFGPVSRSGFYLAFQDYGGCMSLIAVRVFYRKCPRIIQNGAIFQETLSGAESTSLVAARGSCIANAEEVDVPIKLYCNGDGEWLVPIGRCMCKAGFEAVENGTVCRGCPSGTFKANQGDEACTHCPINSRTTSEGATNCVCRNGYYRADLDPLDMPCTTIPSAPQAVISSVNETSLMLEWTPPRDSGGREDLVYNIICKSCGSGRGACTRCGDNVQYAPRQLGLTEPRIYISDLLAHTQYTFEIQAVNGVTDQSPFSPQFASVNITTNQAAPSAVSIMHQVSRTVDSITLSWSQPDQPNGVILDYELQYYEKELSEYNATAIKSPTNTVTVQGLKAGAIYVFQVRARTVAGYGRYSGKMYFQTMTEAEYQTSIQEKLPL

T2: mouse EphB4 extracellular region-Fc-His protein (mouse; human, UniProt P54761 16-539)
T2 construct: extracellular domain; not shown: Fc region of human IgG1; histidine tag
T2 sequence (looked up): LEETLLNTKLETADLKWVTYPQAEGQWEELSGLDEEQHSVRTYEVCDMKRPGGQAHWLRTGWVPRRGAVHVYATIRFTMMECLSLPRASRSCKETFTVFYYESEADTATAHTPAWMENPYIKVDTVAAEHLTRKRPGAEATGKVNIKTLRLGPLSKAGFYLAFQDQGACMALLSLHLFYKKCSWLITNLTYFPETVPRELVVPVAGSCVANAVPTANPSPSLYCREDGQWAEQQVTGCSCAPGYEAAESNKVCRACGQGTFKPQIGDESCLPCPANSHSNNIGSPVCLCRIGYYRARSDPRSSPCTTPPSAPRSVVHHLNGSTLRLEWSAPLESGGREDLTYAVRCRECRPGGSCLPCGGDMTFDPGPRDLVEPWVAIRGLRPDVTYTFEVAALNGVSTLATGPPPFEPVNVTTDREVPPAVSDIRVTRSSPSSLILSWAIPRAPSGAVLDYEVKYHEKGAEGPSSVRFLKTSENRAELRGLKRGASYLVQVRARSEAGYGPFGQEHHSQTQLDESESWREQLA

T3: mouse EphB3 extracellular region-Fc-His protein (mouse; human, UniProt P54754 30-554)
T3 construct: extracellular domain; not shown: Fc region of human IgG1; histidine tag
T3 sequence (looked up): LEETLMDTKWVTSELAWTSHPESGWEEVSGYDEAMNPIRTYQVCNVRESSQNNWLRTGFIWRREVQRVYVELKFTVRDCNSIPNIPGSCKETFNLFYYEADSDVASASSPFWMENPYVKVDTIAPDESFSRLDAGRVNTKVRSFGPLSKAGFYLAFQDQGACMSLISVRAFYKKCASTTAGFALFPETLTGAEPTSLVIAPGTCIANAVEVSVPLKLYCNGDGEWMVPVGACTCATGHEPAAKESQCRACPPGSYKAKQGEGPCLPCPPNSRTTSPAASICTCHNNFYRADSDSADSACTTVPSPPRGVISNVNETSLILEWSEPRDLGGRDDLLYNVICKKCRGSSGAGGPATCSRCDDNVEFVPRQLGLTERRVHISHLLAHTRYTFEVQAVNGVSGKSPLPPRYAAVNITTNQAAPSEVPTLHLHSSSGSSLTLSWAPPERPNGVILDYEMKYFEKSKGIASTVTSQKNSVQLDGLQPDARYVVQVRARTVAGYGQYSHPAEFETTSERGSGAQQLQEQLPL

B1: mouse anti-EphA4 monoclonal antibody (antibody A) (antibody, mouse IgG1, kappa, V domains shown)
VH: QVQLKQSGPSLVQPSQSLSITCTVSGFSLTRYGVHWVRQSPGKGLEWLGVIWRGGSTDYNAAFMSRLSITKDNSKSQVFFKMNSLQADDTAIYYCAKESLFGVYYDYGYYSMDYWGQGTSVTVSS
VL: DIQMTQSPSSLSASLGERVSLTCRASQEISGYLSWLQQKPDGTIKRLIYAASTLDSGVPKRFSGSRSGSDYSLTISSLESEDFADYYCLQYASYPLTFGAGTKLELKR
notes: purified from hybridoma supernatant
B2: humanized anti-EphA4 monoclonal antibody (antibody B) (antibody, human IgG2, V domains shown)
VH: QVQLVESGGGVVQPGRSLRLSCAVSGFSLTRFGVHWVRQAPGKGLEWVAVIWRGGSTDYNAAFMSRLTISKDNSKNTVYLQMNSLRAEDTAVYYCAKESLFGVYYDYGYYSMDYWGQGTTVTVSS
VL: DIQMTQSPSSLSASVGDRVTITCRASQEISGYLSWLQQKPGKAPKRLIYAASTLDSGVPSRFSGSRSGTEYTLTISSLQPEDFATYYCLQYASYPLTFGGGTKVEIKR
notes: expressed in Expi293F cells; also called humanized antibody of antibody A; HK2-42 / L1-8

Columns and labels:
[1] = target: T1, human EphB2 extracellular …; assay: ELISA: SEAP-His proteins (1 nM) captured on anti-6-His antibody, antibody A 10 µg/mL with human IgG 100 µg/mL, HRP anti-mouse IgG, OD450 as % of human EphA4-SEAP-His
[2] = target: T2, mouse EphB4 extracellular region-Fc-His …; assay: ELISA: Fc-His proteins (1 nM) captured on anti-6-His antibody, antibody B 10 µg/mL with human IgG 100 µg/mL, HRP anti-human kappa light chain antibody, OD450 as % of mouse EphA4-Fc-His
Protocol: (§1) Rabbit anti-6-His antibodies (Bethyl Laboratories) were coated onto the wells of a 96-well plate (Nunc). After incubating at 4° C. overnight, the wells were blocked at room temperature for 1 hour by 1% Block Ace (DS Pharma Biomedical). After washing 3 times with 0.05% Tween 20/PBS (Thermo […]), each Eph receptor of mouse extracellular region-Fc-His protein (final concentration 1 nM) was seeded into each well, and incubated at room temperature for 1 hour. After washing 3 times, human IgG solution (100 μg/mL, Sigma) and antibody B (10 μg/mL) were supplemented to the wells, and incubated at room temperature for 1 hour. Horseradish peroxidase-labeled goat anti-human Kappa Light Chain antibody (IBL) was added, and incubated at room temperature for 1 hour. After washing 3 times, TMBZ (3,3′,5,5′-tetramethylbenzidine, Sigma) solution was added to the wells, and upon confirmation of modest coloring, an equal amount of quenching solution (1 N H₂SO₄, Wako Pure Chemicals) was added to the wells, and absorbance at 450 nm was read by a microplate reader (PerkinElmer).

[3] = target: T3, mouse EphB3 extracellular region-Fc-His …; assay: as above
Protocol: as §1

| Binder | binding result [1] | binding result [2] | binding result [3] |
| --- | --- | --- | --- |
| B1 | no binding (tested: 10 µg/mL) | – | – |
| B2 | – | no binding (tested: 10 µg/mL) | no binding (tested: 10 µg/mL) |
